{"source": "patent US10293027B2", "about": "“Methods for treating metabolic disorders using FGF” (Salk Institute for Biological Studies, priority 2010, dated 2019)", "format_in_all_cases": "in vivo, mouse", "key": {"ob/ob male mice": {"system": "ob/ob male mice", "assay": "Daily FGF-1 or rosiglitazone treatment of ob/ob mice: fed blood glucose and body composition (Example 5)", "protocol": "FIGS. 7A-7H. FGF-1 injection studies in rodents. (A) Fed blood glucose in ob/ob male mice treated with FGF-1 (0.5 mg/kg, s.c.), rosiglitazone (TZD, 5 mg/kg, p.o.), or vehicle. FGF-1 was administered once daily, and blood glucose levels were measured at day 0 (basal levels before FGF-1 injection), day 3, and day 6, 1 hour after injection. The values (±SE) shown are the average of the measurements of 5 animals in a group; (B) Sustained glucose lowering effects of FGF-1: Fed blood glucose levels in ob/ob mice at indicated time points after the last FGF-1 injection at day 6. (C-H): 72 hrs after the sixth dose, another dose was given and effects of FGF-1 and TZD on (C) body weight, (D) total body fat, (E) lean weight, (F) weight gain, (G) liver weight, and (H) heart weight were determined.\n(§1) In Example 5, ob/ob male mice (8 wk old) were randomized into three groups and treated with daily subcutaneous (s.c.) injections of recombinant mouse FGF-1 (0.5 mg/kg in PBS), oral rosiglitazone (TZD, 5 mg/kg in 0.5% carboxymethyl cellulose), or vehicle. Blood glucose levels were measure in fed animals one hour after treatment. Total body composition analysis was performed using an EchoMRI-100™ (Echo Medical Systems, LLC).\nEight-week-old male ob/ob mice were treated with recombinant mouse FGF-1 (0.5 mg/kg/day, s.c. in 250 μl), rosiglitazone (TZD, 5 mg/kg/day, p.o. in 300 μl), or vehicle control (s.c. vehicle control 0.9% NaCl, 250 μl/mouse; p.o. vehicle control 0.5% CMC, 300 μl/mouse). Blood glucose was measured one hour after treatment at day 3 and day 6 using a standard protocol. (FIG. 7A).\nBefore treatment, all groups were severely hyperglycemic, as indicated by blood glucose levels of about 400 mg/dl. […] At 6 days, blood glucose levels were even further reduced to around 130-140 mg/dl for both groups. After the sixth dose, blood glucose levels were monitored for another 72 hrs. During this period, both FGF-1- and TZD-treated cohorts maintained normoglycemic levels (<140 mg/dl) for at least 48 hrs (FIG. 7B). At 72 hrs after the sixth dose, a final dose was given, and 12 hrs later, a total body composition analysis was performed by MRI followed by necropsy."}, "ob/ob mice [1]": {"system": "ob/ob mice", "assay": "Acute effects of FGF-1 on blood glucose: dose response and time courses after s.c. and i.v. administration (Example 6)", "details": "for duration of blood glucose reduction after intravenous administration: 0.2 mg/kg i.v.", "protocol": "FIG. 8. Dose response effect of FGF-1 (s.c., mg/kg) on blood glucose levels of ob/ob mice.\nFIG. 9. Effect of FGF-1 (s.c., 0.5 mg/kg) on blood glucose levels of ob/ob mice.\nFIG. 10. Effect of intravenous FGF1 (0.2 mg/kg) on blood glucose levels of ob/ob mice.\nIn order to establish the acute effects of FGF-1 on blood glucose levels, dose response curves (FIG. 8) and time courses after subcutaneous (FIG. 9) and intravenous (FIG. 10) administration were performed."}, "ob/ob mice [2]": {"system": "ob/ob mice", "assay": "Chronic FGF-1 treatment for 36 days: glucose, food intake, body composition, serum lipids, liver (Examples 7-10)", "protocol": "Blood was collected by tail bleeding either in the ad libitum fed state or following overnight fasting. Free fatty acids (Wako), triglycerides (Thermo), and cholesterol (Thermo) were measured using enzymatic colorimetric methods following the manufacturer's instructions. Serum insulin levels were measured using an Ultra Sensitive Insulin ELISA kit (Crystal Chem). Serum adiponectin levels were measured by ELISA (Millipore). Plasma adipokine levels were measured using a Milliplex™ MAP kit (Millipore).\nTissues were fixed in 4% phosphate-buffered formalin, embedded in paraffin, sectioned at 4 μm, and stained with hematoxylin and eosin according to standard procedures. For immunohistochemistry, tissues were deparaffinized in xylene and rehydrated. Slides were incubated with 5% normal donkey serum in PBS (+0.2% Triton-X100 and 1% BSA) for 30 min, and subsequently sections were incubated overnight with a 1:200 dilution of primary antibodies at 4° C. and using Alexa Fluor 488 or 595 as secondary antibodies for 2 hrs at RT.\nas §1\nTo investigate the metabolic effects of chronic FGF-1 treatment in ob/ob mice, eight weeks old male ob/ob mice were treated with vehicle or recombinant mouse FGF-1 (0.5 mg/kg/3 days, s.c.) for a period of 36 days. During this time, glucose levels, food intake, and body composition were monitored."}, "ob/ob mice [3]": {"system": "ob/ob mice", "assay": "Glucose tolerance test after four weeks of FGF-1 administration", "details": "after four weeks of 0.5 mg/kg/3 days s.c.", "protocol": "(§2) Glucose tolerance tests (GTT) were conducted after overnight fasting. Mice were injected intraperitoneally (i.p.) with 1 g of glucose per/kg body weight, and blood glucose was monitored at 0, 15, 30, 60, 90, and 120 min using a OneTouch Ultra glucometer (Lifescan Inc). Insulin tolerance tests (ITT) were conducted after overnight fasting. Mice were injected i.p. with 0.5 U of insulin/kg body weight (Humulin R; Eli Lilly), and blood glucose was monitored at 0, 15, 30, 60, 90, and 120 min using a OneTouch Ultra glucometer (Lifescan Inc). Real-time metabolic analyses were conducted in an undisturbed room under 12 h/12 h light/dark cycles using a Comprehensive Lab Animal Monitoring System (Columbus Instruments).\n(§3) These tests were carried out as described above."}, "ob/ob mice [4]": {"system": "ob/ob mice", "assay": "Single s.c. injection of human FGF1 or other FGFs, blood glucose in ob/ob mice (Examples 13, 14)", "details": "0.5 mg/kg s.c.", "protocol": "FIG. 26. Human recombinant FGF-1 is effective in mice.\nFIG. 27. Comparison of FGF1, FGF2, FGF9, and FGF10 effects. Single subcutaneous injection of FGFs (0.5 mg/kg) in ob/ob mice.\nAs human recombinant FGF-1 is already being used in the clinic, the present methods of using it to treat metabolic disorders offer a straightforward regulatory path to treatment.\nAs explained above, the FGF family of factors bind to members of the FGFR family of receptors with different specificities. FGF-1 binds preferentially to FGFR1 and FGFR4, and can be internalized into a cell expressing these receptors. To determine if other FGF proteins have similar metabolic effects as FGF-1, we tested blood glucose in ob/ob mice treated with FGF-2, FGF-9, and FGF-10 (0.5 mg/kg s.c.). This combination of FGF proteins binds to the spectrum of FGFRs."}, "ob/ob mice [5]": {"system": "ob/ob mice", "assay": "Insulin tolerance test after 4 weeks of chronic FGF-1 administration", "details": "after 4 weeks of chronic administration", "protocol": "as §2, §3"}, "[6]": {"details": "after the 36 day treatment period"}}, "note": "Entries after “also recorded” stand apart in the source; their conditions may differ."}
{"molecule": "FGF-1: recombinant mouse FGF-1 (acidic fibroblast growth factor), a secreted protein that binds heparin and FGF receptors (protein, UniProt P61148 16-155, looked up) Fibroblast growth factor 1: FNLPLGNYKKPKLLYCSNGGHFLRILPDGTVDGTRDRSDQHIQLQLSAESAGEVYIKGTETGQYLAMDTEGLLYGSQTPNEECLFLERLEENHYNTYTSKKHAEKNWFVGLKKNGSCKRGPRTHYGQKAILFLPLPVSSD", "values": [{"measurement": "blood glucose levels at day three", "setting": "ob/ob male mice; fed ob/ob male mice, one hour after treatment, FGF-1 0.5 mg/kg/day s.c., TZD 5 mg/kg/day p.o., about 400 mg/dl before treatment", "value": "about 200 mg/dl"}, {"measurement": "blood glucose (in words)", "setting": "ob/ob male mice; ob/ob diabetic mice, FGF-1 administration", "value": "decreases fed blood glucose in ob/ob mice; also recorded: normalizes their glucose levels"}, {"measurement": "fat-lean ratio", "setting": "ob/ob male mice; ob/ob mice, total body composition by MRI", "value": "improves their fat-lean ratio"}, {"measurement": "duration of blood glucose reduction after intravenous administration", "setting": "ob/ob mice [1]; ob/ob mice", "value": "significantly reduced blood glucose for at least one week; also recorded: much longer lasting (at least one week)"}, {"measurement": "duration of blood glucose reduction after intravenous administration", "setting": "ob/ob mice [1]; ob/ob mice, listed as FGF1", "value": "last up to one week"}, {"measurement": "dose dependence of glucose reduction", "setting": "ob/ob mice [1]; ob/ob mice", "value": "dramatic dose-dependent reduction of glucose levels"}, {"measurement": "EC50 of glucose lowering effect", "setting": "ob/ob mice [1]; s.c., blood glucose of ob/ob mice, dose response", "value": 0.25, "unit": "mg/kg"}, {"measurement": "dose at which maximum glucose lowering effects are reached", "setting": "ob/ob mice [1]; s.c., ob/ob mice", "value": 0.5, "unit": "mg/kg"}, {"measurement": "onset of effect of subcutaneous dosing", "setting": "ob/ob mice [1]; s.c., ob/ob mice", "value": "effective within a matter of hours"}, {"measurement": "blood glucose under chronic treatment", "setting": "ob/ob mice [2]; 0.5 mg/kg every third day s.c., 36 days", "value": "glucose levels are normalized by the first time point tested (day 2) and remain stable for the remainder of the test period; also recorded: completely normalized blood glucose"}, {"measurement": "body weight / weight gain", "setting": "ob/ob mice [2]; 0.5 mg/kg/3 days s.c.", "value": "remains lower than in untreated ob/ob mice; also recorded: reduced weight gain during the first week"}, {"measurement": "food intake", "setting": "ob/ob mice [2]; 0.5 mg/kg/3 days s.c.", "value": "initially results in reduced food intake; also recorded: reduced food intake during the first 1-2 weeks of chronic administration, but after two weeks food intake returned to normal"}, {"measurement": "percent lean mass", "setting": "ob/ob mice [2]; 0.5 mg/kg/3 days s.c.", "value": "significantly higher than in untreated mice; also recorded: increased lean mass as compared with control mice"}, {"measurement": "total percent body fat", "setting": "ob/ob mice [2]; 0.5 mg/kg/3 days s.c.", "value": "reduced percentage body fat; also recorded: reduced increase in percent body fat"}, {"measurement": "hepatic glycogen", "setting": "ob/ob mice [2]; [6]", "value": "much higher; also recorded: increased levels of hepatic glycogen"}, {"measurement": "hepatic steatosis (H&E staining of liver)", "setting": "ob/ob mice [2]; [6]", "value": "much less steatosis, and little if any inflammation; also recorded: Steatosis is dramatically reduced compared to control"}, {"measurement": "glucose tolerance (GTT)", "setting": "ob/ob mice [3]", "value": "cleared glucose more effectively than untreated controls; also recorded: enhances glucose tolerance"}, {"measurement": "blood glucose in ob/ob mice after a single s.c. injection", "setting": "ob/ob mice [4]", "value": "Only FGF1 has glucose normalizing effects"}, {"measurement": "insulin tolerance / insulin sensitivity (ITT)", "setting": "ob/ob mice [5]", "value": "increased insulin sensitivity"}]}
